# Experimental data from patent US20250340595A1 (published 2025).
# Starred links: 1 amine or outer side, 2 acyl side, 3 side chain; linkers in the order of their positions; H or OH if unused. Positions of bridges follow the written chain, without caps; N, C: chain ends. Non-standard residues stand in square brackets, D forms with d. No end group written: not given here. Fluorescein = fluorescein label on the C-terminal Lys side chain; TATA = O=C(CC[*:1])N1CN(C(=O)CC[*:2])CN(C(=O)CC[*:3])C1; TATB = O=C(C[*:1])N1CN(C(=O)C[*:2])CN(C(=O)C[*:3])C1; Tle = CC(C)(C)[C@H](N)C(=O)O; Sar = CNCC(=O)O
# B1: BCY15768 (peptide)
# peptide: ACSPDAHLGCISYCAXXXXXXK
# modifications: 3 Cys on TATB; [Sar6]; C-terminal Lys carries fluorescein
# B2: BCY15777 (peptide)
# peptide: ACSPDAHLGCIAYCA[Sar][Sar][Sar][Sar][Sar][Sar]K(Fluorescein)
# modifications: linker 2-10-14 via TATB
# B3: BCY15774 (peptide)
# peptide: ACSPDAHAGCISYCAXXXXXXK
# modifications: 3 Cys on TATB; [Sar6]; C-terminal Lys carries fluorescein
# B4: BCY15769 (peptide)
# peptide: ACAPDAHLGCISYCA[Sar][Sar][Sar][Sar][Sar][Sar]K(Fluorescein)
# modifications: linker 2-10-14 via TATB
# B5: BCY15773 (peptide)
# peptide: ACSPDAALGCISYCA[Sar][Sar][Sar][Sar][Sar][Sar]K(Fluorescein)
# modifications: linker 2-10-14 via TATB
# B6: BCY15771 (peptide)
# peptide: ACSADAHLGCISYCA[Sar][Sar][Sar][Sar][Sar][Sar]K(Fluorescein)
# modifications: linker 2-10-14 via TATB
# B7: BCY15772 (peptide)
# peptide: ACSPAAHLGCISYCA[Sar][Sar][Sar][Sar][Sar][Sar]K(Fluorescein)
# modifications: linker 2-10-14 via TATB
# B8: BCY15770 (peptide)
# peptide: ACSPDAHLGCISACA[Sar][Sar][Sar][Sar][Sar][Sar]K(Fluorescein)
# modifications: linker 2-10-14 via TATB
# B9: BCY16051 (peptide)
# peptide: ACSPDAHLGC[Tle]SYCA
# modifications: linker 2-10-14 via TATB
# B10: BCY17113 (peptide)
# peptide: ESFCSPDAHLGCISYCA
# modifications: linker 4-12-16 via TATB
# B11: BCY15467 (peptide)
# peptide: ACPQDAYLGCISWCA
# modifications: linker 2-10-14 via TATB
# B12: BCY17991 (peptide)
# peptide: CPXDAYLGCXSYC
# modifications: 3 Cys on TATB; N-terminal acetyl (Ac); core as printed CP[HyP]DAYLGC[tBuGly]SYC
# B13: BCY17111 (peptide)
# peptide: HTSCSPDAHLGCISYCA
# modifications: linker 4-12-16 via TATB
# B14: BCY17110 (peptide)
# peptide: HWMCSPDAHLGCISYCA
# modifications: linker 4-12-16 via TATB
# B15: BCY17119 (peptide)
# peptide: ACSPDAHLGCISYCEHQE
# modifications: linker 2-10-14 via TATB (inferred)
# B16: BCY13989 (peptide)
# peptide: ACPPDSWQGCISYCA
# modifications: linker 2-10-14 via TATB
# B17: BCY15471 (peptide)
# peptide: ACSADDWLGCISYCA
# modifications: linker 2-10-14 via TATB
# B18: BCY17115 (peptide)
# peptide: ACSPDAHLGCISYCPHP-NH2
# modifications: linker 2-10-14 via TATB (inferred)
# B19: BCY17993 (peptide)
# peptide: NWNCPXDAYLGCXSYC
# modifications: 3 Cys on TATB; N-terminal acetyl (Ac); core as printed CP[HyP]DAYLGC[tBuGly]SYC
# B20: BCY17118 (peptide)
# peptide: IDSNCPNDAHLGCISYCA
# modifications: linker 5-13-17 via TATB (inferred)
# B21: BCY17116 (peptide)
# peptide: WGKSCPIDAHLGCISYCA
# modifications: linker 5-13-17 via TATB (inferred)
# B22: BCY17117 (peptide)
# peptide: TYMNCPPDAHLGCISYCA
# modifications: linker 5-13-17 via TATB (inferred)
# B23: BCY12455 (peptide)
# peptide: ACALCNDWTLPWHHCA
# modifications: 3 Cys on TATA
# B24: BCY13983 (peptide)
# peptide: ACSADDWLGCISWCA
# modifications: 3 Cys on TATB
# B25: BCY13986 (peptide)
# peptide: ACSSDAYLGCISWCA
# modifications: 3 Cys on TATB
# B26: BCY12454 (peptide)
# peptide: ACLEACYDGVYWYSCA
# modifications: 3 Cys on TATA
# B27: BCY12452 (peptide)
# peptide: ACREFFDTCGLAFIECA-NH2
# modifications: linker 2-9-16 via TATA; N-terminus assumed
# SMILES: CC[C@H](C)[C@@H]1NC(=O)[C@H](Cc2ccccc2)NC(=O)[C@H](C)NC(=O)[C@H](CC(C)C)NC(=O)CNC(=O)[C@@H]2CSCCC(=O)N3CN(CN(C3)C(=O)CCSC[C@@H](C(=O)N[C@@H](C)C(N)=O)NC(=O)[C@H](CCC(=O)O)NC1=O)C(=O)CCSC[C@H](NC(=O)[C@H](C)N)C(=O)N[C@@H](CCCNC(=N)N)C(=O)N[C@@H](CCC(=O)O)C(=O)N[C@@H](Cc1ccccc1)C(=O)N[C@@H](Cc1ccccc1)C(=O)N[C@@H](CC(=O)O)C(=O)N[C@@H]([C@@H](C)O)C(=O)N2
# B28: BCY16048 (peptide)
# peptide: ACPPDAHLGCISYCA
# modifications: 3 Cys on TATB
# B29: BCY14475 (peptide)
# peptide: ACSSDAYLGCISWCA[Sar][Sar][Sar][Sar][Sar][Sar]K(Fluorescein)
# modifications: linker 2-10-14 via TATB
# B30: BCY14476 (peptide)
# peptide: ACPPDSWQGCISYCA[Sar][Sar][Sar][Sar][Sar][Sar]K(Fluorescein)
# modifications: linker 2-10-14 via TATB
# B31: BCY12652 (peptide)
# peptide: ACALCNDWTLPWHHCA[Sar][Sar][Sar][Sar][Sar][Sar]K(Fluorescein)
# modifications: linker 2-5-15 via TATA
# Target: T1, Recombinant cynomolgus TfR1, His6-tagged (a.a. 89-760) (cynomolgus, UniProt H9EXL1 89-760 (rhesus entry))
# T1 construct: range 89-760; same product number named for FP and SPR; also called Cyno TfR1; Acro Biosystems TFR-C524a
# T1 sequence (chain, as listed by the source): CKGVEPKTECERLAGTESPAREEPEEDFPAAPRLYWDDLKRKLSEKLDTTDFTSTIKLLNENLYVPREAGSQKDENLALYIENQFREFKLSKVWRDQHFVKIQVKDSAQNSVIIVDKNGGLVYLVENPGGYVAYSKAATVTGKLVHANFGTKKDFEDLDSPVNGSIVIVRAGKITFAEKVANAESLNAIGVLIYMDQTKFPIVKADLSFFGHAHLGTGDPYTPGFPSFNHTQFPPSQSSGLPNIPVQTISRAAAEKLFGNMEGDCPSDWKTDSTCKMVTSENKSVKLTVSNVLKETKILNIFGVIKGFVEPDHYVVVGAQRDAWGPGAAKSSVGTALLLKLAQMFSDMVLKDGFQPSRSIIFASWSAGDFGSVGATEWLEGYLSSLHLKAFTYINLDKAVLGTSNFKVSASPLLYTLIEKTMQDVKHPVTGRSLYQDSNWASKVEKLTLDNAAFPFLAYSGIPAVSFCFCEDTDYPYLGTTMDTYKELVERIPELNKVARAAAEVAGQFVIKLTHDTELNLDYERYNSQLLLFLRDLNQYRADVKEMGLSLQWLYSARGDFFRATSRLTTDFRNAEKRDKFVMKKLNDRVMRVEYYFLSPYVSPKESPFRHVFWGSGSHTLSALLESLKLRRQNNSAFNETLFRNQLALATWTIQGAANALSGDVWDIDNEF
# Assay: FP competition table (Table 6)
row,Ki [µM],Binder
1,1.07,B1
2,2.91,B2
3,3.47,B3
4,1.12,B4
5,2.3,B5
6,1.06,B6
7,7.08,B7
8,4.04,B8

# Target: T2, Human TfR1 protein (R&D Systems, 2474-TR or Acro Biosystems, CD1-H5243) (human, UniProt P02786 89-760)
# T2 sequence (P02786 89-760 limits assumed): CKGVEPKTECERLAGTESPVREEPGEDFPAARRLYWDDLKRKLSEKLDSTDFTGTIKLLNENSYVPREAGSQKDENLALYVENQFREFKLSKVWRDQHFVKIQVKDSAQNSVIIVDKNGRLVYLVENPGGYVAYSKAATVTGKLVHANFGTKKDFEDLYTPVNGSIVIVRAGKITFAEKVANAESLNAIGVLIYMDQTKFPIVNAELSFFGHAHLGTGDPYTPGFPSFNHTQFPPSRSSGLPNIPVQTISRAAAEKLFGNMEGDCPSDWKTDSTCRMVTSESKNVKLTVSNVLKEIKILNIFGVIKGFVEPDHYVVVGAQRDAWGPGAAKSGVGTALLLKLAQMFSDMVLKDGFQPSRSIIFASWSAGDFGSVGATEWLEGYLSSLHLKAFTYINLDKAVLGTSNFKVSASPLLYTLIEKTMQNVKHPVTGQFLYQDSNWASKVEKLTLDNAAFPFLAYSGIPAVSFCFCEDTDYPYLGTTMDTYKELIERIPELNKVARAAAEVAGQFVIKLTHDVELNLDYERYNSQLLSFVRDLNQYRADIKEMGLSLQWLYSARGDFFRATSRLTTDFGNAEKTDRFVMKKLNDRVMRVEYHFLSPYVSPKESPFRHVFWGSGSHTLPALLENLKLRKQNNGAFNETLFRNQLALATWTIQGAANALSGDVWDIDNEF
# Assay: FP competition, competitor BCY15768
row,Ki [µM],Binder
1,0.066,B9
2,0.103,B10
3,0.133,B11
4,0.002,B12
5,0.086,B13
6,0.022,B14
7,0.16,B15
8,0.565,B16
9,0.434,B17
10,0.03,B18
11,0.003,B19
12,0.07,B20
13,0.075,B21
14,0.037,B22

# Target: T1, Recombinant cynomolgus TfR1, …
# Assay: SPR, TfR1 on chip
row,Kd [µM],Binder
1,42.4,B23
2,1580,B11
3,3440,B16
4,4580,B24
5,4660,B17
6,2590,B25

# Target: T3, Recombinant human TfR1, His6-tagged (a.a. 89-760) (human, UniProt P02786 89-760)
# T3 construct: range 89-760; captured and coupled on an NTA chip for SPR; also called transferrin receptor 1; CD71
# T3 sequence (P02786 89-760 limits assumed): as above
# Assay: SPR, TfR1 on chip
row,Kd [µM],Binder
1,65.6,B23
2,29.5,B11
3,376,B16
4,450,B24
5,263,B17
6,132,B25

# Target: T2, Human TfR1 protein (R&D Systems, …)
# Assay: Alpha assay, competition with labelled transferrin
row,IC50 [µM],Binder
1,0.673,B23
2,0.893,B26
3,1.22,B27

# Target: T2, Human TfR1 protein (R&D Systems, …)
# Assay: FP competition, competitor BCY15768
# Remark: another data set of the same source
row,Ki [µM],Binder
1,0.066,B9
2,0.103,B10
3,0.003,B12
4,0.086,B13
5,0.022,B14
6,0.16,B15
7,0.565,B16
8,0.434,B17
9,0.03,B18
10,0.005,B19
11,0.07,B20
12,0.075,B21
13,0.037,B22

# Target: T1, Recombinant cynomolgus TfR1, …
# Assay: FP competition, competitor BCY15768
row,Ki [µM],Binder
1,0.482,B9
2,0.621,B28
3,3.44,B16
4,4.66,B17

# Target: T1, Recombinant cynomolgus TfR1, …
# Assay: SPR, TfR1 on chip
# Remark: another data set of the same source
row,Kd [µM],Binder
1,1.82,B9
2,1.66,B10
3,0.035,B12
4,1.28,B28
5,0.907,B13
6,0.232,B14
7,5.65,B15
8,~11,B16
9,1.24,B18
10,0.235,B19
11,1.96,B20
12,3.8,B1
13,41,B3
14,2.2,B4
15,2.6,B5
16,4,B6
17,99,B7
18,0.474,B21
19,0.805,B22

# Target: T3, Recombinant human TfR1, His6-tagged …
# Assay: SPR, TfR1 on chip
# Remark: another data set of the same source
row,Kd [µM],Binder
1,0.025,B9
2,0.308,B10
3,0.0034,B12
4,0.0083,B13
5,0.015,B14
6,0.212,B15
7,0.06,B18
8,0.009,B19
9,0.12,B20
10,0.07,B4
11,0.001,B21
12,0.0042,B22

# Target: T1, Recombinant cynomolgus TfR1, …
# Assay: FP direct binding
row,Kd [µM],Binder
1,2.62,B29
2,3.65,B30
3,0.098,B31
4,0.707,B1
